Reference: article PMC9854190

Target: HA-Akt, P31749
Test: co-immunoprecipitation (FLAG beads), HA-Akt band quantified
Details: chain shown with the change, HEK-293 cells expressing D3R, n = 3, read off a plot

Sequence of HA-Akt, P31749 (P31749 whole entry): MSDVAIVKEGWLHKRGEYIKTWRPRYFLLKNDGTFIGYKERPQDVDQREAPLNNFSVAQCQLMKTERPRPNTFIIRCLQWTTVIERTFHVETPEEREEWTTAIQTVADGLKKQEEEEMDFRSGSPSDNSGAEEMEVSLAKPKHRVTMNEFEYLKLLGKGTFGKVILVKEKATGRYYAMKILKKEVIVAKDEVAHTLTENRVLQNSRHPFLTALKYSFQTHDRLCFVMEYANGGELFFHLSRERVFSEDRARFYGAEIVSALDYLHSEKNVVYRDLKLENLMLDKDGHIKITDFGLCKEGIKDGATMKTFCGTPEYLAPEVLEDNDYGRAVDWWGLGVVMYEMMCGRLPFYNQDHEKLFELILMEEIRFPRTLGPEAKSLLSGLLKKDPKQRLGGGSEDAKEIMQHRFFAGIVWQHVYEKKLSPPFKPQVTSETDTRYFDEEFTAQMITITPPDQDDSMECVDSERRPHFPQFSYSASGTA

- other: Folds of Co-IP (Quin +, parent: est. 0.97): 0.74 fold
- other: Folds of Co-IP (Veh (Quin -), parent: est. 0.97): 0.9 fold
B1: FLAG-USP33, Q8TEY7-2 T154A (protein)
chain: MSAFRNHCPHLDSVGEITKEDLIQKSLGTCQDCKVQGPNLWACLENRCSYVGCGESQVDHSTIHSQETKHYLTVNLTTLRVWCYACSKEVFLDRKLGTQPSLPHVRQPHQIQENSVQDFKIPSNTTLKTPLVAVFDDLDIEADEEDELRARGLAGLKNIGNTCYMNAALQALSNCPPLTQFFLDCGGLARTDKKPAICKSYLKLMTELWHKSRPGSVVPTTLFQGIKTVNPTFRGYSQQDAQEFLRCLMDLLHEELKEQVMEVEEDPQTITTEETMEEDKSQSDVDFQSCESCSNSDRAENENGSRCFSEDNNETTMLIQDDENNSEMSKDWQKEKMCNKINKVNSEGEFDKDRDSISETVDLNNQETVKVQIHSRASEYITDVHSNDLSTPQILPSNEGVNPRLSASPPKSGNLWPGLAPPHKKAQSASPKRKKQHKKYRSVISDIFDGTIISSVQCLTCDRVSVTLETFQDLSLPIPGKEDLAKLHSSSHPTSIVKAGSCGEAYAPQGWIAFFMEYVKRFVVSCVPSWFWGPVVTLQDCLAAFFARDELKGDNMYSCEKCKKLRNGVKFCKVQNFPEILCIHLKRFRHELMFSTKISTHVSFPLEGLDLQPFLAKDSPAQIVTYDLLSVICHHGTASSGHYIAYCRNNLNNLWYEFDDQSVTEVSESTVQNAEAYVLFYRKSSEEAQKERRRISNLLNIMEPSLLQFYISRQWLNKFKTFAEPGPISNNDFLCIHGGVPPRKAGYIEDLVLMLPQNIWDNLYSRYGGGPAVNHLYICHTCQIEAEKIEKRRKTELEIFIRLNRAFQKEDSPATFYCISMQWFREWESFVKGKDGDPPGPIDNTKIAVTKCGNVMLRQGADSGQISEETWNFLQSIYGGGPEVILRPPVVHVDPDILQAEEKIEVETRSL
- other: Folds of Co-IP (Quin w/+ (desensitization condition), parent: est. 1.7): 0.86 fold
